Data reported in patent US20240101959A1, “USE OF IL-2R-BETA-GAMMA AGONIST PEPTIDES IN CELL MANUFACTURING” (MEDIKINE, INC., priority 2022, published 2024).
Positions of bridges follow the written chain, without caps; N, C: chain ends. No end group written: not given here.

T1: hu-IL-2Rβ subunit (human, UniProt P14784 27-240, limits assumed)
T1 construct: also called human interleukin-2 receptor subunit β; CD122
T1 sequence (looked up): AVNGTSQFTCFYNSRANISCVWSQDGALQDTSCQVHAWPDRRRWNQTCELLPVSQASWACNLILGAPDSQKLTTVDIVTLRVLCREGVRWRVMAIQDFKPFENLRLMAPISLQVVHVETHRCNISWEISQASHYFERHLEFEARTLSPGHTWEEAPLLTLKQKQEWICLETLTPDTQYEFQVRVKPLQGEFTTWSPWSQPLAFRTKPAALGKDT


Target: T1, hu-IL-2Rβ subunit
Experiment: phage ELISA competition assay

| IC50 | Binder |
| --- | --- |
| < 100 µM | WGRNRSWYPCWMAQLGELCDLE [SEQ ID NO 113] |
| < 100 µM | WYPCWLAQVGELCDRE [SEQ ID NO 488] |
| < 100 µM | MRTTFWYDCYIAQVGELCDF (not fully specified (bridges); cysteine pairing not given here) [SEQ ID NO 479] |
| < 100 µM | VTVQDCYFARVGDLCDLFSP [SEQ ID NO 516] |
| < 100 µM | WWPCEIAQIGELCDLEWVRHAE [SEQ ID NO 476] |
| < 100 µM | WYPCWMAKVGELCDME [SEQ ID NO 494] |
| < 100 µM | FGDDFCRFIPLFEMCTTDVE [SEQ ID NO 513] |
| < 100 µM | TNGVLDWWPCWMAQVGELCDLD (not fully specified (bridges); cysteine pairing not given here) [SEQ ID NO 471] |
| < 100 µM | RLLRDCFLAKVGDLCELFVW [SEQ ID NO 525] |
| < 100 µM | VSRYDCYIAKVGELCDFFEF [SEQ ID NO 515] |
| < 100 µM | WLPCWLAKLGELCDLEWLPCW [SEQ ID NO 111] |
| < 100 µM | RDWWLPCEFALIGELCDLERSW [SEQ ID NO 478] |
| < 100 µM | WFPCWLAKVGELCDRDDLAGPS [SEQ ID NO 485] |
| < 100 µM | SRVWHPCWLARVGELCDLEVSD [SEQ ID NO 499] |
| < 100 µM | YDCYIAQVGELCDI [SEQ ID NO 522] |
| < 100 µM | AYYPCELAQLGELCDLYNI [SEQ ID NO 473] |

| IC50 | Binder |
| --- | --- |
| < 100 µM | RGVYFPCWLAKVGDLCDSDEF [SEQ ID NO 489] |
| < 100 µM | WWPCEWARIGELCDLE [SEQ ID NO 486] |
| < 100 µM | RLASDWWDCYIAKVGELCDF (not fully specified (bridges); cysteine pairing not given here) [SEQ ID NO 524] |
| < 100 µM | WEHEFTWYPCWIAQVGELCDMD [SEQ ID NO 500] |
| < 100 µM | WAFYDCRNAQVGDFCDLWEF [SEQ ID NO 518] |
| < 100 µM | GGYYDCLIAEVGELCDIYGR [SEQ ID NO 520] |
| < 100 µM | WEWYDCLMAQVGELCDFEGN [SEQ ID NO 517] |
| < 100 µM | WYPCWLAKVGELCDQE [SEQ ID NO 491] |
| < 100 µM | SWHAETWYPCWLAQVGELCDLD [SEQ ID NO 480] |
| < 100 µM | SNWHDCLFAQVGELCDLPGS (not fully specified (bridges); cysteine pairing not given here) [SEQ ID NO 521] |
| < 100 µM | RAWWWPCELAQVGELCDLEPSS [SEQ ID NO 490] |
| < 100 µM | WQIFDCYLAQVGELCDLQDT [SEQ ID NO 511] |
| < 100 µM | WLPCWIAKIGDLCDLD [SEQ ID NO 498] |
| < 100 µM | VVCYACDIAHVGELCDLTCR [SEQ ID NO 508] |
| < 100 µM | AQVRREWYPCWMAQLGELCDLT (disulfide 10-19 (inferred)) [SEQ ID NO 109] |
| < 100 µM | SMDQDCYFAQVGELCVLFNQ [SEQ ID NO 519] |

The next lines start with the binder.

| Binder | IC50 |
| --- | --- |
| SGKTQMWNPCYVAKVGELCDLV [SEQ ID NO 482] | < 100 µM |
| WWPCDFAQIGELCDLGPRFTGE [SEQ ID NO 477] | < 100 µM |
| HRGWVGWYPCEYALPGQLCDLE [SEQ ID NO 501] | < 100 µM |
| LVYYDCYMAQVGELCDLPSL [SEQ ID NO 514] | < 100 µM |
| GRYPDCYIAHVGELCEFYDG (not fully specified (bridges); cysteine pairing not given here) [SEQ ID NO 512] | < 100 µM |
| RVRRHSWWPCEIAVVGELCDLE (not fully specified (bridges); cysteine pairing not given here) [SEQ ID NO 503] | < 100 µM |
| DKAGPNFYPCWLAHVGELCDQA [SEQ ID NO 483] | < 100 µM |
| LESLDCFFARIGDLCEIWDV [SEQ ID NO 510] | < 100 µM |
| ETEQMSWYPCWVAQLWELCDLD (disulfide 10-19 (inferred)) [SEQ ID NO 110] | < 100 µM |
| RYVPDCLKAQVGDLCDFFAW [SEQ ID NO 492] | < 100 µM |
| TPWYDCYIANVGDLCDFASA [SEQ ID NO 509] | < 100 µM |
| NDHTAWWPCYFAQVGDLCDLV [SEQ ID NO 475] | < 100 µM |
| LPFQDCYIAQVGELCDLPGT [SEQ ID NO 505] | < 100 µM |
| WEKLQNWYPCWIAQMGELCDLE (not fully specified (bridges); cysteine pairing not given here) [SEQ ID NO 470] | < 100 µM |
| EWFHDCFLAKVGDLCDLFLW [SEQ ID NO 481] | < 100 µM |
| KWFHDCFLAKVGDLCDLFLW [SEQ ID NO 533] | < 100 µM |
| QWFHNCFLARVGDTCDLFLW [SEQ ID NO 526] | < 100 µM |
| QITDSGWYPCWVAKVGELCDMD [SEQ ID NO 495] | < 100 µM |
| WTGWSAFYPCSIANLGELCDLD [SEQ ID NO 469] | < 100 µM |
| WWPCYLAQIGELCDLV [SEQ ID NO 493] | < 100 µM |
| SWLSDLQDCYIAQVGDLCQI [SEQ ID NO 523] | < 100 µM |
| AGFRGRWWPCEYAQVGELCDLE [SEQ ID NO 484] | < 100 µM |
| DGWWPCWIAQVGELCDLEDPV (not fully specified (bridges); cysteine pairing not given here) [SEQ ID NO 504] | < 100 µM |
| EGHWYPCWIAQLGELCDLDW [SEQ ID NO 468] | < 100 µM |
| KGSSWFPCYFAQVGDLCDLY [SEQ ID NO 487] | < 100 µM |
| RWMFDCLFARVGELCDIRPW [SEQ ID NO 506] | < 100 µM |
| QDRRSPWYPCWMAKLGELCDLA [SEQ ID NO 114] | < 100 µM |
| YRWWYPCDIAQVGELCDLDYLL [SEQ ID NO 496] | < 100 µM |
| ERRPDTWFPCWRALVGELCDLE [SEQ ID NO 112] | < 100 µM |
| GGYYDCLIAEVGELCDMPGQ [SEQ ID NO 507] | < 100 µM |
